Reference: US20230322940A1 (published 2023)

Target: CD44 on CD44-positive and CD133-positive glioma stem cells GSC20 (UniProt P16070 21-742)
Assay: cell-based or functional assay

Binder	Lysis rate of glioma stem cells by CAR-T cells (LDH release), effect-target ratio 1:1	Lysis rate of glioma stem cells by CAR-T cells (LDH release), effect-target ratio 2:1	Lysis rate of glioma stem cells by CAR-T cells (LDH release), effect-target ratio 3:1	Lysis rate of glioma stem cells by CAR-T cells (LDH release), effect-target ratio 5:1
fusion protein shown in SEQ ID NO. 8 (anti-CD44 single-chain antibody, anti-CD133 single-chain antibody, CD28, truncated body of IL7Rα, CD3, T2A, anti-TIM3 … (other) QVQLVESGGGVVQPGRSLRLSCAASGFTFSSYGMHWVRQAPGKGLEWVAVIWYDGSNKFYADSVKGRFTISRDNSKNTLYLQMNSLRAEDTAVYYCARRSDYRGYYGMDVWGQGTTVTVSSGSTSGGGSGGGSGGGGSSEIVLTQSPATLSLSPGERATLSCRASQSVINYLAWYQQKPGQAPRLLIYDASNRASGIPARFSGSGSGTDFTLTISSLEPEDFAVYYCQQRRNWPLTFGGGTKVEIKGGGGSGGGGSGGGGSQVQLVQSGAEVKKPGASVKVSCKASGYTFTDFEMHWVRQAPGQGLEWMGDIDPGTGDTAYNLKFKGRVTMTTDTSTSTAYMELRSLRSDDTAVYYCALGAFVYWGQGTLVTVSSGSTSGGGSGGGSGGGGSSDVVMTQSPLSLPVTPGEPASISCRSSQSLANSYGNTYLSWYLQKPGQSPQLLIYGISNRFSGVPDRFSGSGSGTDFTLKISRVEAEDVGVYYCLQGTHQPYTFGQGTKLEIKTTTPAPRPPTPAPTIASQPLSLRPEACRPAAGGAVHTRGLDFACDIYIWAPLAGTCGVLLLSLVITLYCRSKRSRLLHSDYMNMTPRRPGPTRKHYQPYAPPRDFAAYRSKKRIKPIVWPSLPDHKKTLEHLCKKPRKNLNVSFNPESFLDCQIHRVDDIQARDEVEGFLQDTFPQQLEESEKQRLLGSNQEEAYVTMSSFYQNQRVKFSRSADAPAYKQGQNQLYNELNLGRREEYDVLDKRRGRDPEMGGKPRRKNPQEGLYNELQKDKMAEAYSEIGMKGERRRGKGHDGLYQGLSTATKDTYDALHMQALPPREGRGSLLTCGDVEENPGPMTNKCLLQIALLLCFSTTALSQVQLQQSGPGLVKPSHTLSLTCTVSGGSISSGGYYWSWTRQHPGMGLEWIGYISYSGSIYYTPSLKSRLTISVDTSKNQFSLKLSSVTAADTAVYYCASLDSWGSNRDYWGQGTLVTVSSGGGGSEIVLTQSPATLSLSPGERATLSCRASQSVSSYLAWYQQKPGQAPRLLIYDASNRATGIPARFSGSGSGTDFTLTISSLEPEDFAVYYCQQRSNWPLTFGGGTKVEIK	31.1%	50%	62.8%	86.8%
fusion protein shown in SEQ ID NO. 7 (anti-CD44 single-chain antibody, CD28, truncated body of IL7Rα, CD3, T2A, anti-TIM3 single-chain antibody), expressed on … (other) QVQLVESGGGVVQPGRSLRLSCAASGFTFSSYGMHWVRQAPGKGLEWVAVIWYDGSNKFYADSVKGRFTISRDNSKNTLYLQMNSLRAEDTAVYYCARRSDYRGYYGMDVWGQGTTVTVSSGSTSGGGSGGGSGGGGSSEIVLTQSPATLSLSPGERATLSCRASQSVINYLAWYQQKPGQAPRLLIYDASNRASGIPARFSGSGSGTDFTLTISSLEPEDFAVYYCQQRRNWPLTFGGGTKVEIKTTTPAPRPPTPAPTIASQPLSLRPEACRPAAGGAVHTRGLDFACDIYIWAPLAGTCGVLLLSLVITLYCRSKRSRLLHSDYMNMTPRRPGPTRKHYQPYAPPRDFAAYRSKKRIKPIVWPSLPDHKKTLEHLCKKPRKNLNVSFNPESFLDCQIHRVDDIQARDEVEGFLQDTFPQQLEESEKQRLLGSNQEEAYVTMSSFYQNQRVKFSRSADAPAYKQGQNQLYNELNLGRREEYDVLDKRRGRDPEMGGKPRRKNPQEGLYNELQKDKMAEAYSEIGMKGERRRGKGHDGLYQGLSTATKDTYDALHMQALPPREGRGSLLTCGDVEENPGPMTNKCLLQIALLLCFSTTALSQVQLQQSGPGLVKPSHTLSLTCTVSGGSISSGGYYWSWTRQHPGMGLEWIGYISYSGSIYYTPSLKSRLTISVDTSKNQFSLKLSSVTAADTAVYYCASLDSWGSNRDYWGQGTLVTVSSGGGGSEIVLTQSPATLSLSPGERATLSCRASQSVSSYLAWYQQKPGQAPRLLIYDASNRATGIPARFSGSGSGTDFTLTISSLEPEDFAVYYCQQRSNWPLTFGGGTKVEIK	30.3%	48.5%	51.2%	81.2%
fusion protein shown in SEQ ID NO. 5 (anti-CD44 single-chain antibody, CD28, truncated body of IL7Rα, CD3), expressed on CAR-T 3 cells (other) QVQLVESGGGVVQPGRSLRLSCAASGFTFSSYGMHWVRQAPGKGLEWVAVIWYDGSNKFYADSVKGRFTISRDNSKNTLYLQMNSLRAEDTAVYYCARRSDYRGYYGMDVWGQGTTVTVSSGSTSGGGSGGGSGGGGSSEIVLTQSPATLSLSPGERATLSCRASQSVINYLAWYQQKPGQAPRLLIYDASNRASGIPARFSGSGSGTDFTLTISSLEPEDFAVYYCQQRRNWPLTFGGGTKVEIKTTTPAPRPPTPAPTIASQPLSLRPEACRPAAGGAVHTRGLDFACDIYIWAPLAGTCGVLLLSLVITLYCRSKRSRLLHSDYMNMTPRRPGPTRKHYQPYAPPRDFAAYRSKKRIKPIVWPSLPDHKKTLEHLCKKPRKNLNVSFNPESFLDCQIHRVDDIQARDEVEGFLQDTFPQQLEESEKQRLLGSNQEEAYVTMSSFYQNQRVKFSRSADAPAYKQGQNQLYNELNLGRREEYDVLDKRRGRDPEMGGKPRRKNPQEGLYNELQKDKMAEAYSEIGMKGERRRGKGHDGLYQGLSTATKDTYDALHMQALPPR	15.2%	35.2%	44%	62.5%
fusion protein shown in SEQ ID NO. 4 (anti-CD44 single-chain antibody, anti-CD133 single-chain antibody, CD28, CD3), expressed on CAR-T 2 cells (other) QVQLVESGGGVVQPGRSLRLSCAASGFTFSSYGMHWVRQAPGKGLEWVAVIWYDGSNKFYADSVKGRFTISRDNSKNTLYLQMNSLRAEDTAVYYCARRSDYRGYYGMDVWGQGTTVTVSSGSTSGGGSGGGSGGGGSSEIVLTQSPATLSLSPGERATLSCRASQSVINYLAWYQQKPGQAPRLLIYDASNRASGIPARFSGSGSGTDFTLTISSLEPEDFAVYYCQQRRNWPLTFGGGTKVEIKGGGGSGGGGSGGGGSQVQLVQSGAEVKKPGASVKVSCKASGYTFTDFEMHWVRQAPGQGLEWMGDIDPGTGDTAYNLKFKGRVTMTTDTSTSTAYMELRSLRSDDTAVYYCALGAFVYWGQGTLVTVSSGSTSGGGSGGGSGGGGSSDVVMTQSPLSLPVTPGEPASISCRSSQSLANSYGNTYLSWYLQKPGQSPQLLIYGISNRFSGVPDRFSGSGSGTDFTLKISRVEAEDVGVYYCLQGTHQPYTFGQGTKLEIKTTTPAPRPPTPAPTIASQPLSLRPEACRPAAGGAVHTRGLDFACDIYIWAPLAGTCGVLLLSLVITLYCRSKRSRLLHSDYMNMTPRRPGPTRKHYQPYAPPRDFAAYRSRVKFSRSADAPAYKQGQNQLYNELNLGRREEYDVLDKRRGRDPEMGGKPRRKNPQEGLYNELQKDKMAEAYSEIGMKGERRRGKGHDGLYQGLSTATKDTYDALHMQALPPR	14%	23.2%	41%	56.9%

Other lines, results leading:

Lysis rate of glioma stem cells by CAR-T cells (LDH release), effect-target ratio 1:1	Lysis rate of glioma stem cells by CAR-T cells (LDH release), effect-target ratio 2:1	Lysis rate of glioma stem cells by CAR-T cells (LDH release), effect-target ratio 3:1	Lysis rate of glioma stem cells by CAR-T cells (LDH release), effect-target ratio 5:1	Binder
9.93%	12.2%	35%	57.3%	fusion protein shown in SEQ ID NO. 3 (anti-CD44 single-chain antibody, CD28, CD3), expressed on CAR-T 1 cells (other) QVQLVESGGGVVQPGRSLRLSCAASGFTFSSYGMHWVRQAPGKGLEWVAVIWYDGSNKFYADSVKGRFTISRDNSKNTLYLQMNSLRAEDTAVYYCARRSDYRGYYGMDVWGQGTTVTVSSGSTSGGGSGGGSGGGGSSEIVLTQSPATLSLSPGERATLSCRASQSVINYLAWYQQKPGQAPRLLIYDASNRASGIPARFSGSGSGTDFTLTISSLEPEDFAVYYCQQRRNWPLTFGGGTKVEIKTTTPAPRPPTPAPTIASQPLSLRPEACRPAAGGAVHTRGLDFACDIYIWAPLAGTCGVLLLSLVITLYCRSKRSRLLHSDYMNMTPRRPGPTRKHYQPYAPPRDFAAYRSRVKFSRSADAPAYKQGQNQLYNELNLGRREEYDVLDKRRGRDPEMGGKPRRKNPQEGLYNELQKDKMAEAYSEIGMKGERRRGKGHDGLYQGLSTATKDTYDALHMQALPPR
22.2%	37.3%	56.2%	61.4%	fusion protein shown in SEQ ID NO. 6 (anti-CD44 single-chain antibody, CD28, CD3, T2A, anti-TIM3 single-chain antibody), expressed on CAR-T 4 cells (other) QVQLVESGGGVVQPGRSLRLSCAASGFTFSSYGMHWVRQAPGKGLEWVAVIWYDGSNKFYADSVKGRFTISRDNSKNTLYLQMNSLRAEDTAVYYCARRSDYRGYYGMDVWGQGTTVTVSSGSTSGGGSGGGSGGGGSSEIVLTQSPATLSLSPGERATLSCRASQSVINYLAWYQQKPGQAPRLLIYDASNRASGIPARFSGSGSGTDFTLTISSLEPEDFAVYYCQQRRNWPLTFGGGTKVEIKTTTPAPRPPTPAPTIASQPLSLRPEACRPAAGGAVHTRGLDFACDIYIWAPLAGTCGVLLLSLVITLYCRSKRSRLLHSDYMNMTPRRPGPTRKHYQPYAPPRDFAAYRSRVKFSRSADAPAYKQGQNQLYNELNLGRREEYDVLDKRRGRDPEMGGKPRRKNPQEGLYNELQKDKMAEAYSEIGMKGERRRGKGHDGLYQGLSTATKDTYDALHMQALPPREGRGSLLTCGDVEENPGPMTNKCLLQIALLLCFSTTALSQVQLQQSGPGLVKPSHTLSLTCTVSGGSISSGGYYWSWTRQHPGMGLEWIGYISYSGSIYYTPSLKSRLTISVDTSKNQFSLKLSSVTAADTAVYYCASLDSWGSNRDYWGQGTLVTVSSGGGGSEIVLTQSPATLSLSPGERATLSCRASQSVSSYLAWYQQKPGQAPRLLIYDASNRATGIPARFSGSGSGTDFTLTISSLEPEDFAVYYCQQRSNWPLTFGGGTKVEIK
